Key:
[1] = Protein release from gels comprising anionically and cationically charged microparticles (release buffer, 37° C., BCA Protein Assay); format: physicochemical; settings: for time to reach a release of 50% of protein: HEPES pH 7 isotonised with NaCl, 37° C.
Protocol: To each of the gels prepared according to example 5, 1.5 mL release buffer (HEPES, pH 7, 100 mM, isotonised with NaCl) was added. Subsequently, the cups were incubated at 37° C. Samples of 1.0 mL were taken at various intervals and replaced by 1.0 mL fresh buffer. The protein concentration in the samples was measured […] using the BCA Protein Assay.
Gels loaded with IgG were prepared in analogy to example 5 and tested in analogy to example 6, except that IgG was used as a model protein instead of lysozyme and BSA.

[2] = Incorporation of protein into charged microparticles; format: physicochemical; settings: neutral or physiological pH

Substance	time to reach a release of 50% of protein ([1]; 12.5%-gel (solid content about 12.5%))	time to reach a release of 50% of protein ([1]; 25.5%-gel (so in the source))	incorporation into negatively charged microparticles [2]	incorporation into positively charged microparticles [2]	protein released ([1]; after about 60 days, gels prepared in analogy to example 5)	release rate compared with the other model proteins ([1]; gels of oppositely charged microparticles)
lysozyme	about 20 h	about 85 h	easily incorporated	not very efficiently incorporated		
IgG					approx. 50%	substantially slower
